The target in this test is M53 protein (Streptococcus pyogenes) (UniProt P49054). Kind of test: SPR; screen: 200 nM Plg injected for 2100 s at 10 μL/min over immobilised Mrp or control M protein, 900 s dissociation; no Fg. For orientation: Surface plasmon resonance follows binding to a sensor surface in real time, without labels.

The text below walks through data of article PMC11917135.

As usually defined, the Kd is the concentration at which binding is half-saturated. A low value points to tighter binding.

Chain of UniProt P49054 (P49054 30-384): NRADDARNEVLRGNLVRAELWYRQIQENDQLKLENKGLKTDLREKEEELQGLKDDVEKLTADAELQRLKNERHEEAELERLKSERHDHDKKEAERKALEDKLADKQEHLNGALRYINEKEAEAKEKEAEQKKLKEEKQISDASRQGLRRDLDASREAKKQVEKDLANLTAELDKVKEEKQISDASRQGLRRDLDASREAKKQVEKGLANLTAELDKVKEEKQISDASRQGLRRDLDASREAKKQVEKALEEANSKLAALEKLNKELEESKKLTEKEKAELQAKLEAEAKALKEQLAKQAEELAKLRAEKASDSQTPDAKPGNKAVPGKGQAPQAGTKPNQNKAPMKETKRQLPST

On to human Glu-plasminogen (natural protein), for which the Kd was < 50 nM.
